# Test results published in paper PMC10397247.
# T1: 4H2585-bN
# T1 chain: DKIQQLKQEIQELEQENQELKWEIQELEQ
# T2: 4H349-bN
# T2 chain: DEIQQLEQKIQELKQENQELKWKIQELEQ
# T3: 4H3297-bN
# T3 chain: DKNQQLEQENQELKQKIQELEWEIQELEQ
# T4: 4H2931-bN
# T4 chain: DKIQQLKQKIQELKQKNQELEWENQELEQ
# T5: 4H56-bN
# T5 chain: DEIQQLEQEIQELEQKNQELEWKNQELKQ
# T6: 4H570-bH
# T6 chain: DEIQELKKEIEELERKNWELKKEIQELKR
# T7: 4H2859-bN
# T7 chain: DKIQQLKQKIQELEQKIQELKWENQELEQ
# T8: 4H949-bN
# T8 chain: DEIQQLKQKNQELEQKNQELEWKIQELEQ
# T9: 4H3381-bN
# T9 chain: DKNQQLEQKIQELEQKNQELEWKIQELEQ
# T10: 4H2760-bN
# T10 chain: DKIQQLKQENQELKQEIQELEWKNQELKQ
# T11: 4H264-bN
# T11 chain: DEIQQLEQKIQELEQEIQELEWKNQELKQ
# T12: 4H2518-bN
# T12 chain: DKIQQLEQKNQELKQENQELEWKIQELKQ
# T13: 4H932-bN
# T13 chain: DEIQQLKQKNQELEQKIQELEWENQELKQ
# T14: 4H3041-bN
# T14 chain: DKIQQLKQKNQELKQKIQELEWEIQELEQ
# T15: 4H3364-bN
# T15 chain: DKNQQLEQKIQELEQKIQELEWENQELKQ
# T16: 4H730-bN
# T16 chain: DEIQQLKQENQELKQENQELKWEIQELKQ
# T17: 4H796-bN
# T17 chain: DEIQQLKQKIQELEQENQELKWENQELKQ
# T18: 4H3907-bA
# T18 chain: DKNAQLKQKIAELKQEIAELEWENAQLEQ
# T19: 4H4038-bA
# T19 chain: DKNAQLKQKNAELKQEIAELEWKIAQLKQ
# T20: 4H3961-bA
# T20 chain: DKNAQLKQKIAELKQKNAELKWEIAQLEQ
# T21: 4H607-bA
# T21 chain: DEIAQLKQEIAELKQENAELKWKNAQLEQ
# T22: 4H470-bA
# T22 chain: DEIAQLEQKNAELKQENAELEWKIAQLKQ
# T23: 4H570-bN
# T23 chain: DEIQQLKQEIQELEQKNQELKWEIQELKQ
# T24: 4H3926-bN
# T24 chain: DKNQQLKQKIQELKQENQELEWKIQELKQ
# T25: 4H591-bN
# T25 chain: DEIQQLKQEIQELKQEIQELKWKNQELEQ
# T26: 4H1985-bN
# T26 chain: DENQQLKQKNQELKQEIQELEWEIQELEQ
# T27: 4H3817-bN
# T27 chain: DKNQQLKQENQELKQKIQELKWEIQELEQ
# T28: 4H3613-bN
# T28 chain: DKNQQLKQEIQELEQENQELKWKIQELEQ
# T29: 4H953-bA
# T29 chain: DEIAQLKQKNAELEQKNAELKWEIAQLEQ
# T30: 4H1899-bN
# T30 chain: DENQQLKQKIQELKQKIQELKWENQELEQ
# T31: 4H3974-bN
# T31 chain: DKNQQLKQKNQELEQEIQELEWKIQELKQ
# T32: 4H3277-bN
# T32 chain: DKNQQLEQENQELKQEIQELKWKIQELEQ
# T33: 4H2697-bN
# T33 chain: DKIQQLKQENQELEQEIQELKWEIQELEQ
# T34: 4H3298-bN
# T34 chain: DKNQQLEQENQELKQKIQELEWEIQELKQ
# T35: 4H3497-bN
# T35 chain: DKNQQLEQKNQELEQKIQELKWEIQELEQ
# T36: 4H906-bN
# T36 chain: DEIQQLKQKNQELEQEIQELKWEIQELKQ
# T37: 4H3628-bN
# T37 chain: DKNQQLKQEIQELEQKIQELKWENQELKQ
# T38: 4H850-bN
# T38 chain: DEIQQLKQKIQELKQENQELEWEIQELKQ
# T39: 4H626-bN
# T39 chain: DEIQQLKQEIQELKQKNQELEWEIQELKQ
# T40: 4H717-bH
# T40 chain: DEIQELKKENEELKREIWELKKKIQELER
# T41: 4H3462-bN
# T41 chain: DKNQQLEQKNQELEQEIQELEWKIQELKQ
# T42: 4H3175-bN
# T42 chain: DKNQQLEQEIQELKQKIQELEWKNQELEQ
# T43: 4H3162-bN
# T43 chain: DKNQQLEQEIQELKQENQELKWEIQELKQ
# T44: 4H3858-bN
# T44 chain: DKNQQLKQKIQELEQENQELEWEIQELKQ
# Assays:
# Experiment in all cases: two-hybrid library CCNG1;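 further: natural log of median RNA to DNA barcode read ratio; higher means stronger binding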
# 4H2585-bN = target: T1, 4H2585-bN
# 4H349-bN = target: T2, 4H349-bN
# 4H3297-bN = target: T3, 4H3297-bN
# 4H2931-bN = target: T4, 4H2931-bN
# 4H56-bN = target: T5, 4H56-bN
# 4H570-bH = target: T6, 4H570-bH
# 4H2859-bN = target: T7, 4H2859-bN
# 4H949-bN = target: T8, 4H949-bN
# 4H3381-bN = target: T9, 4H3381-bN
# 4H2760-bN = target: T10, 4H2760-bN
# 4H264-bN = target: T11, 4H264-bN
# 4H2518-bN = target: T12, 4H2518-bN
# 4H932-bN = target: T13, 4H932-bN
# 4H3041-bN = target: T14, 4H3041-bN
# 4H3364-bN = target: T15, 4H3364-bN
# 4H730-bN = target: T16, 4H730-bN
# 4H796-bN = target: T17, 4H796-bN
# 4H3907-bA = target: T18, 4H3907-bA
# 4H4038-bA = target: T19, 4H4038-bA
# 4H3961-bA = target: T20, 4H3961-bA
# 4H607-bA = target: T21, 4H607-bA
# 4H470-bA = target: T22, 4H470-bA
# 4H570-bN = target: T23, 4H570-bN
# 4H3926-bN = target: T24, 4H3926-bN
# 4H591-bN = target: T25, 4H591-bN
# 4H1985-bN = target: T26, 4H1985-bN
# 4H3817-bN = target: T27, 4H3817-bN
# 4H3613-bN = target: T28, 4H3613-bN
# 4H953-bA = target: T29, 4H953-bA
# 4H1899-bN = target: T30, 4H1899-bN
# 4H3974-bN = target: T31, 4H3974-bN
# 4H3277-bN = target: T32, 4H3277-bN
# 4H2697-bN = target: T33, 4H2697-bN
# 4H3298-bN = target: T34, 4H3298-bN
# 4H3497-bN = target: T35, 4H3497-bN
# 4H906-bN = target: T36, 4H906-bN
# 4H3628-bN = target: T37, 4H3628-bN
# 4H850-bN = target: T38, 4H850-bN
# 4H626-bN = target: T39, 4H626-bN
# 4H717-bH = target: T40, 4H717-bH
# 4H3462-bN = target: T41, 4H3462-bN
# 4H3175-bN = target: T42, 4H3175-bN
# 4H3162-bN = target: T43, 4H3162-bN
# 4H3858-bN = target: T44, 4H3858-bN
binder,measurement,setting,value
DKIQQLEQKNQELKQENQELEWKIQELKQ [4H2518-bN],interaction score,4H2585-bN,0.403
same,interaction score,4H349-bN,-0.274
same,interaction score,4H3297-bN,-0.555
same,interaction score,4H2931-bN,-0.539
same,interaction score,4H56-bN,-0.0872
same,interaction score,4H570-bH,-2.15
same,interaction score,4H2859-bN,-0.834
same,interaction score,4H949-bN,-0.152
same,interaction score,4H3381-bN,-0.272
same,interaction score,4H2760-bN,0.227
same,interaction score,4H264-bN,1.11
same,interaction score,4H2518-bN,-0.0161
same,interaction score,4H932-bN,-0.482
same,interaction score,4H3041-bN,-0.522
same,interaction score,4H3364-bN,-0.536
same,interaction score,4H730-bN,1.02
same,interaction score,4H796-bN,0.473
DKNAQLKQKIAELKQEIAELEWENAQLEQ [4H3907-bA],interaction score,4H3907-bA,0.8
same,interaction score,4H4038-bA,-0.611
same,interaction score,4H3961-bA,-1.16
same,interaction score,4H607-bA,-0.806
same,interaction score,4H470-bA,-1.37
DENQQLKQKIQELKQKIQELKWENQELEQ [4H1899-bN],interaction score,4H570-bN,-1
same,interaction score,4H3926-bN,-0.429
same,interaction score,4H591-bN,-1.42
same,interaction score,4H1985-bN,-0.785
same,interaction score,4H3817-bN,-0.969
same,interaction score,4H3613-bN,0.0619
same,interaction score,4H953-bA,-1.81
same,interaction score,4H1899-bN,-1.24
same,interaction score,4H3974-bN,-0.336
same,interaction score,4H3277-bN,-1.21
same,interaction score,4H2697-bN,-1.18
same,interaction score,4H3298-bN,-0.744
same,interaction score,4H3497-bN,-0.658
same,interaction score,4H906-bN,-0.654
same,interaction score,4H3628-bN,0.469
same,interaction score,4H850-bN,-1.55
same,interaction score,4H626-bN,-0.642
same,interaction score,4H717-bH,-0.282
same,interaction score,4H3462-bN,-2.27
same,interaction score,4H3175-bN,-0.0673
same,interaction score,4H3162-bN,-0.75
same,interaction score,4H3858-bN,-0.633
